We go through seven proteins from publication PMC8016129, “Switching the substrate specificity of lysoplasmalogen‐specific phospholipase D” (FEBS Open Bio, 2021).

Sequences and labels used below:
B1: LyPls-PLD (lysoplasmalogen-specific phospholipase D) (Thermocrispum sp. RD004668; F211L) (protein)
chain: TTRTTDNPWLDARVLNMAHAGGENEAPANTLYAFKRAVKLGANMLELDVQSTKDDQLVVIHNATVDQTTDGTGKVRDLTFEQVHELDAAYNFIPGRHAVPGEPPESYPLRGVRTGEKKPPPGYQPSDFAIPKLADVLEAFPRTPINIEIKGTSDADIPSFLHNAKLLARLLKKTGRTDFIVTSLNDLAVAKFHLLAPDIPIAPGMAGLAAYFLLGVKPMHGTVALQIPVRYQGLEIATPEFIRRAHADGYAVHVWFSGTAPDDEATYNRIIDSCADGLMPAYPALLERILDERGIERPGRPGVDPCG
notes: recombinant from pET24/lpls-pld in E. coli BL21(DE3); purified on HisTrap HP
B2: LyPls-PLD (lysoplasmalogen-specific phospholipase D) (Thermocrispum sp. RD004668; M71G) (protein)
chain: B1 chain with M44G, L184F
notes: as for B1
B3: LyPls-PLD (lysoplasmalogen-specific phospholipase D) (Thermocrispum sp. RD004668; F211C) (protein)
chain: B1 chain with L184C
notes: as for B1
B4: LyPls-PLD (lysoplasmalogen-specific phospholipase D) (Thermocrispum sp. RD004668; W282G) (protein)
chain: B1 chain with L184F, W255G
notes: as for B1
B5: LyPls-PLD (lysoplasmalogen-specific phospholipase D) (Thermocrispum sp. RD004668) (protein)
chain: B1 chain with L184F
notes: as for B1
B6: LyPls-PLD (lysoplasmalogen-specific phospholipase D) (Thermocrispum sp. RD004668; N173A) (protein)
chain: B1 chain with N146A, L184F
notes: as for B1
B7: LyPls-PLD (lysoplasmalogen-specific phospholipase D) (Thermocrispum sp. RD004668; F211T) (protein)
chain: B1 chain with L184T
notes: as for B1

Where a chain is given by its changes, count along the chain named. In names and notes the source's numbering stands.

A word on the Km: it is the substrate concentration at which the rate is half of its maximum. Broadly, the kcat is the maximal rate divided by the concentration of active sites. The term kcat/Km denotes the turnover number divided by the Michaelis constant.

Substrate in the first data set: CCCCCCCCCCCCCCCCOC[C@@H](O)COP(=O)([O-])OCC[N+](C)(C)C
The data set can be described thus: released choline by choline oxidase/peroxidase colorimetric assay, Michaelis-Menten fit. The format is biochemical, Thermocrispum sp. RD004668. The conditions noted are these: pH 8.0, 50 °C, 1 min, 2 mM CaCl2, substrate micelles. The text has this:
(§1) released choline by choline oxidase/peroxidase colorimetric assay, Michaelis-Menten fit on LyPls-PLD (lysoplasmalogen-specific phospholipase D)
Consider B1, for which the Km stood at 26.8 ± 8.55 µM, the kcat turned out to be 187 ± 6.3 s⁻¹ and the specificity constant (kcat/Km) stood at 6.97e+06 ± 2.24e+06 M⁻¹ s⁻¹.
On to B2, for which the Michaelis constant (Km) amounted to 69.3 ± 10.2 µM, the kcat was found to be 72 ± 2.9 s⁻¹ and the kcat/Km was 1.04e+06 ± 159000 M⁻¹ s⁻¹.
For B3 the same measures were 52.2 ± 9.44 µM, 207 ± 15 s⁻¹ and 3.96e+06 ± 769000 M⁻¹ s⁻¹.
As to B4, the Km is 71.7 ± 5.26 µM, the kcat came out at 4.4 ± 0.082 s⁻¹ and the catalytic efficiency (kcat/Km) turned out to be 60900 ± 4630 M⁻¹ s⁻¹.
The like results for B5 were, in that order, 56.4 ± 16.9 µM, 74 ± 4.9 s⁻¹ and 1.3e+06 ± 400000 M⁻¹ s⁻¹.
The like results for B6 were, in that order, 110 ± 17.1 µM, 106 ± 4.0 s⁻¹ and 965000 ± 153000 M⁻¹ s⁻¹.
For B7 the same measures were 40.6 ± 5.49 µM, 205 ± 8.9 s⁻¹ and 5.06e+06 ± 720000 M⁻¹ s⁻¹.

Substrate in a further data set: CCCCCCCCCCCCCCCC/C=C\OC[C@@H](O)COP(=O)([O-])OCC[N+](C)(C)C
The data set is described as above. The format is biochemical, Thermocrispum sp. RD004668. The conditions noted are these: pH 8.0, 50 °C, 1 min, 2 mM CaCl2, substrate micelles.
Source text: as §1
On to B1, for which the Km turned out to be 76.7 ± 12.6 µM, the kcat is 21 ± 0.91 s⁻¹ and the kcat/Km came to 271000 ± 46000 M⁻¹ s⁻¹.
Turning to B2, the Km amounted to 64.8 ± 4.18 µM, the catalytic constant (kcat) was 57 ± 2.5 s⁻¹ and the kcat/Km stood at 880000 ± 68500 M⁻¹ s⁻¹.
The like results for B4 were, in that order, 286 ± 51.7 µM, 10.5 ± 0.95 s⁻¹ and 36000 ± 7250 M⁻¹ s⁻¹.
For B5 the same measures were 88.9 ± 8.76 µM, 122 ± 3.47 s⁻¹ and 1.37e+06 ± 141000 M⁻¹ s⁻¹.
As to B6, the Michaelis constant (Km) was 200 ± 42.3 µM, the kcat was determined as 42 ± 3.9 s⁻¹ and the kcat/Km was found to be 212000 ± 49000 M⁻¹ s⁻¹.
